B1: VAR2CSA ID1-DBL2Xa, 3D7 (Baculo) (other)
chain: LSFILNSSDANNPSEKIQKNNDEVCNCNESGIASVEQEQISDPSSNKTCITHSSIKANKKKVCKHVKLGVRENDKDLRVCVIEHTSLSGVENCCCQDFLRILQENCSDNKSGSSSNGSCNNKNQEACEKNLEKVLASLTNCYKCDKCKSEQSKKNNKNWIWKKSSGKEGGLQKEYANTIGLPPRTQSLCLVVCLDEKGKKTQELKNIRTNSELLKEWIIAAFHEGKNLKPSHEKKNDDNGKKLCKALEYSFADYGDLIKGTSIWDNEYTKDLELNLQKIFGKLFRKYIKKNNTAEQDTSYSSLDELRESWWNTNKKYIWLAMKHGAGMNSTTCCGDGSVTGSGSSCDDIPTIDLIPQYLRFLQEWVEHFCKQRQEKVKPVIENCKSCKESGGTCNGECKTECKNKCEVYKKFIEDCKGGDGTAGSSWVKRWDQIYKRYSKYIEDAKRNRKAGTKNCGPSSTTNAA
notes: not shown: C-terminal V5 and His tag of the modified pAcGP67-A vector
B2: VAR2CSA ID1-DBL2Xb, 3D7 (Baculo) (other)
chain: NYIKGDPYFAEYATKLSFILNSSDANNPSEKIQKNNDEVCNCNESGIASVEQEQISDPSSNKTCITHSSIKANKKKVCKHVKLGVRENDKDLRVCVIEHTSLSGVENCCCQDFLRILQENCSDNKSGSSSNGSCNNKNQEACEKNLEKVLASLTNCYKCDKCKSEQSKKNNKNWIWKKSSGKEGGLQKEYANTIGLPPRTQSLCLVVCLDEKGKKTQELKNIRTNSELLKEWIIAAFHEGKNLKPSHEKKNDDNGKKLCKALEYSFADYGDLIKGTSIWDNEYTKDLELNLQKIFGKLFRKYIKKNNTAEQDTSYSSLDELRESWWNTNKKYIWLAMKHGAGMNSTTCCGDGSVTGSGSSCDDIPTIDLIPQYLRFLQEWVEHFCKQRQEKVKPVIENCKSCKESGGTCNGECKTECKNKCEVYKKFIEDCKGGDGTAGSSWVKRWDQIYKRYSKYIEDAKRNRKAGTKNCGPSSTTNAAENKCVQSDIDSFFKHLIDIGLTTPSSYLSIVLDDNICGADKAPWTTYTTYTTTEKCNKETDKSKLQQCNTAVVVNVPSPLGNTPHGYKY
notes: The 3D7 forward primer begins at LSFILN; not shown: C-terminal V5 and His tag of the modified pAcGP67-A vector
B3: VAR2CSA ID1-ID2a, 3D7 (Baculo) (other)
chain: NYIKGDPYFAEYATKLSFILNSSDANNPSEKIQKNNDEVCNCNESGIASVEQEQISDPSSNKTCITHSSIKANKKKVCKHVKLGVRENDKDLRVCVIEHTSLSGVENCCCQDFLRILQENCSDNKSGSSSNGSCNNKNQEACEKNLEKVLASLTNCYKCDKCKSEQSKKNNKNWIWKKSSGKEGGLQKEYANTIGLPPRTQSLCLVVCLDEKGKKTQELKNIRTNSELLKEWIIAAFHEGKNLKPSHEKKNDDNGKKLCKALEYSFADYGDLIKGTSIWDNEYTKDLELNLQKIFGKLFRKYIKKNNTAEQDTSYSSLDELRESWWNTNKKYIWLAMKHGAGMNSTTCCGDGSVTGSGSSCDDIPTIDLIPQYLRFLQEWVEHFCKQRQEKVKPVIENCKSCKESGGTCNGECKTECKNKCEVYKKFIEDCKGGDGTAGSSWVKRWDQIYKRYSKYIEDAKRNRKAGTKNCGPSSTTNAAENKCVQSDIDSFFKHLIDIGLTTPSSYLSIVLDDNICGADKAPWTTYTTYTTTEKCNKETDKSKLQQCNTAVVVNVPSPLGNTPHGYKYACQCKIPTNEETCDDRKEYMNQWSCGSARTMKRGYKNDNYELCKYNGVDVKPTTVRSNSSKLD
notes: as for B1

Tests used:
[1] = target: CSPG (bovine) (D8428, Sigma) (bovine) (UniProt P21793); assay: quartz crystal microbalance (Attana A100), CSPG coated; FCR3 Baculo
CSPG (bovine) (D8428, Sigma) (bovine), sequence (P21793 31-360): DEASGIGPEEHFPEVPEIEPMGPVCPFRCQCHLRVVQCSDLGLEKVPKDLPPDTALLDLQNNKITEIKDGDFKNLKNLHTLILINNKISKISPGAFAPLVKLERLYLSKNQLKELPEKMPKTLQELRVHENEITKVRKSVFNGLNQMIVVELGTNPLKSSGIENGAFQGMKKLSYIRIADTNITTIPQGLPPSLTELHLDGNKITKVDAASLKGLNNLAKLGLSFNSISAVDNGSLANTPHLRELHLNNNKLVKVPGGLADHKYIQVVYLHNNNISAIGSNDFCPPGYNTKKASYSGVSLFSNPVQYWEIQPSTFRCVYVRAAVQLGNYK

[2] = target: CSPG (bovine) (D8428, Sigma) (bovine) (UniProt P21793); assay: quartz crystal microbalance (Attana A100), CSPG coated; 3D7 Baculo
[3] = target: T1, CSPG (bovine) (D8428, Sigma) (bovine, UniProt P21793 31-360, carries chondroitin sulfate A (CSA) glycosaminoglycan chain(s); attachment site not stated); assay: quartz crystal microbalance (Attana A100), CSPG coated
T1 construct: Commercial proteoglycan coated on the chip or plate; also called chondroitin sulfate proteoglycan; CSA proteoglycan (CSPG)
T1 sequence (P21793 31-360): as above

[4] = target: T1, CSPG (bovine) (D8428, Sigma); assay: quartz crystal microbalance (Attana A100), CSPG coated; 3D7 Baculo
Protocol: All buffers and reagents were filtered to 0.2 μm. The ligand was CSPG (Bovine) (D8428, Sigma) or HSPG (H4777, Sigma), coated at a concentration of 100 μg/ml. Coating was done in steady state by adding ligand solution and incubation 30 minutes at room temperature. This was followed by blocking the plate with PBS containing 0.1% Ig-free BSA (BSA-50, Rockland), 30 minutes at room temperature. The Attana A100 was washed with 1% SDS prior to every experiment, using the manufacturers predefined daily wash program. Following the wash, the running buffer was switched to PBS at a flow rate of 25 μL/min, at 25° C., and the machine was allowed to stabilize at a maximum change in frequency of 0.5 Hz/min. […] Prior to sample injection PBS was injected as a blank. Analyte was injected in a 1:3 dilution series (0.25 μg/ml-60 μg/ml) starting with the lowest concentration. Association time was set to 84 seconds and disassociation time to 5 minutes. […] The data collected was processed in the Attester Evaluation software (Attana AB). Curves were fitted in a simple 1:1 model. kₒₙ and koff were determined by curve fitting and KD was calculated based KD=koff/kₒₙ.

Molecule	Kd [1]	other results
VAR2CSA DBL1-ID2b, FCR3 (Baculo)	1.5 nM	–
VAR2CSA DBL2X-DBL4ε, FCR3 (Baculo)	2.4 nM	–
VAR2CSA ID1-DBL3ε, FCR3 (Baculo)	0.3 nM	–
VAR2CSA ID1-DBL4ε, FCR3 (Baculo)	8.6 nM	–
VAR2CSA FV2, 3D7 (Baculo)	–	Kd [2]: 8.2 nM
VAR2CSA FV2, FCR3 (Baculo)	5.2 nM	–
B1	–	binding result [3]: no binding (tested: 0.25 µg/ml-60 µg/ml)
B2	–	Kd [4]: 21.8 nM
B3	–	Kd [4]: 5.7 nM

From patent US20180298098A1 (VAR2 PHARMACEUTICAL, published 2018)
